Reference: patent US20130007924A1

Legend:
[1] = molecular target: putative receptor proteins in brush border membrane vesicles (BBMV) from European corn borer (Ostrinia nubilalis) larval midgut (Ostrinia nubilalis); test: homologous competition: unlabeled Cry1Ab against 0.5 nM 125I Cry1Ab on ECB BBMV
[2] = molecular target: putative receptor proteins in brush border membrane vesicles (BBMV) from European corn borer (Ostrinia nubilalis) larval midgut (Ostrinia nubilalis); test: heterologous competition: unlabeled Cry2Aa at 1,000 nM against 0.5 nM 125I Cry1Ab on ECB BBMV

Substance | IC50 [1] [nM] | percent displacement of 125I Cry1Ab at 1,000 nM competitor [2] [%]
Cry1Ab protein (truncated Cry toxin) (from UniProt P0A370 29-612) | 3 | 
Cry2Aa protein (from UniProt P0A377 1-633) |  | < 50
